# Laboratory results reported in the supplement of paper PMC9112550, “Optimization of the antimicrobial peptide Bac7 by deep mutational scanning” (BMC Biology, 2022).
# System: Escherichia coli TOP10
# Test: shrunken log2 fold change of peptide-encoding DNA abundance (4.5 h post-induction vs induction); higher = less antimicrobial activity (less host growth inhibition)
# Conditions: time post-induction: 4.5 h; library: site-saturation at positions 5, 18, 19, 20
# 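Also: peptides expressed intracellularly from a pBAD plasmid library in pooled LB shake-flask culture, induced with 0.3% L-arabinose, DNA abundance read by NGS, three biological replicates, DESeq2 with apeglm shrinkage.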
sequence,measurement,value
RRIRYRPPRLPRPRPRPTFQPRP,shrunken log2 fold change,-0.0033
RRIRNRPPRLPRPRPRPWVTPRP,shrunken log2 fold change,-0.0711
RRIRNRPPRLPRPRPRPETSPRP,shrunken log2 fold change,0.24
RRIRHRPPRLPRPRPRPVHPPRP,shrunken log2 fold change,-0.131
RRIRYRPPRLPRPRPRPRAPPRP,shrunken log2 fold change,0.271
RRIRLRPPRLPRPRPRPWLSPRP,shrunken log2 fold change,-0.0106
RRIRLRPPRLPRPRPRPKHQPRP,shrunken log2 fold change,0.125
RRIRIRPPRLPRPRPRPNTSPRP,shrunken log2 fold change,-0.639
RRIRMRPPRLPRPRPRPNVSPRP,shrunken log2 fold change,0.141
RRIRRRPPRLPRPRPRPGKVPRP,shrunken log2 fold change,-0.037
RRIRMRPPRLPRPRPRPPEEPRP,shrunken log2 fold change,2.13
RRIRVRPPRLPRPRPRPMPRPRP,shrunken log2 fold change,0.24
RRIRPRPPRLPRPRPRPNFFPRP,shrunken log2 fold change,0.323
RRIRERPPRLPRPRPRPDQYPRP,shrunken log2 fold change,-0.0158
RRIRGRPPRLPRPRPRPHMVPRP,shrunken log2 fold change,-0.0598
RRIRWRPPRLPRPRPRPNRCPRP,shrunken log2 fold change,0.0312
RRIRQRPPRLPRPRPRPLKLPRP,shrunken log2 fold change,-0.017
RRIRRRPPRLPRPRPRPQKYPRP,shrunken log2 fold change,-0.696
RRIRWRPPRLPRPRPRPWQPPRP,shrunken log2 fold change,-0.0542
RRIRYRPPRLPRPRPRPKPWPRP,shrunken log2 fold change,0.03
RRIRQRPPRLPRPRPRPSYFPRP,shrunken log2 fold change,-0.515
RRIRFRPPRLPRPRPRPICIPRP,shrunken log2 fold change,-0.399
RRIRVRPPRLPRPRPRPCCNPRP,shrunken log2 fold change,-0.426
RRIRWRPPRLPRPRPRPFAYPRP,shrunken log2 fold change,-0.304
RRIRRRPPRLPRPRPRPRFPPRP,shrunken log2 fold change,0.676
RRIRKRPPRLPRPRPRPTDEPRP,shrunken log2 fold change,0.819
RRIRCRPPRLPRPRPRPDVNPRP,shrunken log2 fold change,-0.281
RRIRGRPPRLPRPRPRPYGYPRP,shrunken log2 fold change,0.158
RRIRDRPPRLPRPRPRPYYEPRP,shrunken log2 fold change,-0.226
RRIRNRPPRLPRPRPRPSERPRP,shrunken log2 fold change,-0.016
RRIRDRPPRLPRPRPRPVRCPRP,shrunken log2 fold change,0.339
RRIRWRPPRLPRPRPRPRCPPRP,shrunken log2 fold change,0.264
RRIRGRPPRLPRPRPRPKACPRP,shrunken log2 fold change,0.145
RRIRTRPPRLPRPRPRPYQTPRP,shrunken log2 fold change,-0.128
RRIRERPPRLPRPRPRPWHCPRP,shrunken log2 fold change,-0.0723
RRIRLRPPRLPRPRPRPRPVPRP,shrunken log2 fold change,0.637
RRIRWRPPRLPRPRPRPTCCPRP,shrunken log2 fold change,1.13
RRIRIRPPRLPRPRPRPLTYPRP,shrunken log2 fold change,-0.495
RRIRMRPPRLPRPRPRPWVHPRP,shrunken log2 fold change,0.031
RRIRNRPPRLPRPRPRPMEPPRP,shrunken log2 fold change,-0.0573
RRIRLRPPRLPRPRPRPFMFPRP,shrunken log2 fold change,-0.306
RRIRFRPPRLPRPRPRPPFTPRP,shrunken log2 fold change,0.0652
RRIRGRPPRLPRPRPRPYDSPRP,shrunken log2 fold change,0.0118
RRIRCRPPRLPRPRPRPHNDPRP,shrunken log2 fold change,-0.889
RRIRPRPPRLPRPRPRPMDWPRP,shrunken log2 fold change,0.432
RRIRMRPPRLPRPRPRPDNKPRP,shrunken log2 fold change,-0.336
RRIRIRPPRLPRPRPRPNQRPRP,shrunken log2 fold change,0.00427
RRIRSRPPRLPRPRPRPELDPRP,shrunken log2 fold change,0.674
RRIRMRPPRLPRPRPRPPRRPRP,shrunken log2 fold change,1.47
RRIRPRPPRLPRPRPRPNCMPRP,shrunken log2 fold change,-0.16
RRIRYRPPRLPRPRPRPNACPRP,shrunken log2 fold change,-0.047
RRIRPRPPRLPRPRPRPKHRPRP,shrunken log2 fold change,0.0187
RRIRLRPPRLPRPRPRPQDRPRP,shrunken log2 fold change,0.128
RRIRKRPPRLPRPRPRPKLIPRP,shrunken log2 fold change,0.0851
RRIRSRPPRLPRPRPRPQDFPRP,shrunken log2 fold change,-0.161
RRIRTRPPRLPRPRPRPSREPRP,shrunken log2 fold change,0.427
RRIRERPPRLPRPRPRPTIHPRP,shrunken log2 fold change,-0.324
RRIRKRPPRLPRPRPRPWPLPRP,shrunken log2 fold change,-0.0227
RRIRNRPPRLPRPRPRPSPCPRP,shrunken log2 fold change,-0.36
RRIRRRPPRLPRPRPRPDHGPRP,shrunken log2 fold change,-0.146
RRIRARPPRLPRPRPRPNHGPRP,shrunken log2 fold change,-0.0204
RRIRGRPPRLPRPRPRPNHWPRP,shrunken log2 fold change,0.309
RRIRVRPPRLPRPRPRPKMDPRP,shrunken log2 fold change,-0.093
RRIRPRPPRLPRPRPRPDHHPRP,shrunken log2 fold change,-0.543
RRIRMRPPRLPRPRPRPWHTPRP,shrunken log2 fold change,0.0985
RRIRGRPPRLPRPRPRPIWHPRP,shrunken log2 fold change,0.213
RRIRGRPPRLPRPRPRPLVTPRP,shrunken log2 fold change,1.2
RRIRLRPPRLPRPRPRPLTCPRP,shrunken log2 fold change,-0.0184
RRIRARPPRLPRPRPRPQRDPRP,shrunken log2 fold change,0.225
RRIRMRPPRLPRPRPRPECKPRP,shrunken log2 fold change,0.0491
RRIRVRPPRLPRPRPRPRATPRP,shrunken log2 fold change,0.114
RRIRSRPPRLPRPRPRPVYRPRP,shrunken log2 fold change,-0.398
RRIRWRPPRLPRPRPRPDYRPRP,shrunken log2 fold change,-0.0424
RRIRSRPPRLPRPRPRPLMNPRP,shrunken log2 fold change,-0.204
RRIRHRPPRLPRPRPRPDMCPRP,shrunken log2 fold change,-0.173
RRIRQRPPRLPRPRPRPQTHPRP,shrunken log2 fold change,-0.293
RRIRKRPPRLPRPRPRPKEQPRP,shrunken log2 fold change,-0.0322
RRIRARPPRLPRPRPRPVVAPRP,shrunken log2 fold change,0.604
RRIRARPPRLPRPRPRPMKPPRP,shrunken log2 fold change,0.101
RRIRERPPRLPRPRPRPRISPRP,shrunken log2 fold change,-1.36
RRIRVRPPRLPRPRPRPCDHPRP,shrunken log2 fold change,-0.338
RRIRDRPPRLPRPRPRPQNGPRP,shrunken log2 fold change,-0.0018
RRIRIRPPRLPRPRPRPGVTPRP,shrunken log2 fold change,-0.0211
RRIRGRPPRLPRPRPRPGCSPRP,shrunken log2 fold change,0.867
RRIRQRPPRLPRPRPRPQVLPRP,shrunken log2 fold change,0.00177
RRIRNRPPRLPRPRPRPCLLPRP,shrunken log2 fold change,-0.414
RRIRWRPPRLPRPRPRPHNEPRP,shrunken log2 fold change,-0.476
RRIRHRPPRLPRPRPRPTTIPRP,shrunken log2 fold change,-0.165
RRIRERPPRLPRPRPRPTWWPRP,shrunken log2 fold change,0.412
RRIRHRPPRLPRPRPRPYMPPRP,shrunken log2 fold change,-0.402
RRIRMRPPRLPRPRPRPFVAPRP,shrunken log2 fold change,0.113
RRIRRRPPRLPRPRPRPHYVPRP,shrunken log2 fold change,-0.13
RRIRTRPPRLPRPRPRPGCCPRP,shrunken log2 fold change,0.334
RRIRLRPPRLPRPRPRPACHPRP,shrunken log2 fold change,0.186
RRIRRRPPRLPRPRPRPWWYPRP,shrunken log2 fold change,-0.303
RRIRGRPPRLPRPRPRPRDPPRP,shrunken log2 fold change,1.32
RRIRMRPPRLPRPRPRPLIYPRP,shrunken log2 fold change,-0.0335
RRIRERPPRLPRPRPRPHLVPRP,shrunken log2 fold change,-0.125
RRIRGRPPRLPRPRPRPNVRPRP,shrunken log2 fold change,0.265
RRIRGRPPRLPRPRPRPGYTPRP,shrunken log2 fold change,-0.0605
RRIRLRPPRLPRPRPRPFMYPRP,shrunken log2 fold change,-1.5
RRIRQRPPRLPRPRPRPELWPRP,shrunken log2 fold change,0.27
RRIRHRPPRLPRPRPRPQCMPRP,shrunken log2 fold change,-0.123
RRIRERPPRLPRPRPRPVGVPRP,shrunken log2 fold change,0.0502
RRIRNRPPRLPRPRPRPFIGPRP,shrunken log2 fold change,-0.0677
RRIRWRPPRLPRPRPRPGHIPRP,shrunken log2 fold change,-0.0732
RRIRLRPPRLPRPRPRPICTPRP,shrunken log2 fold change,-0.243
RRIRQRPPRLPRPRPRPPTKPRP,shrunken log2 fold change,0.209
RRIRVRPPRLPRPRPRPIMNPRP,shrunken log2 fold change,-0.752
RRIRARPPRLPRPRPRPMKGPRP,shrunken log2 fold change,-0.132
RRIRTRPPRLPRPRPRPYDAPRP,shrunken log2 fold change,0.0888
RRIRNRPPRLPRPRPRPLQSPRP,shrunken log2 fold change,-0.0505
RRIRMRPPRLPRPRPRPKQKPRP,shrunken log2 fold change,0.0402
RRIRTRPPRLPRPRPRPVEVPRP,shrunken log2 fold change,-0.0848
RRIRFRPPRLPRPRPRPICEPRP,shrunken log2 fold change,-0.0168
RRIRVRPPRLPRPRPRPAPRPRP,shrunken log2 fold change,0.634
RRIRYRPPRLPRPRPRPYWIPRP,shrunken log2 fold change,-0.222
RRIRLRPPRLPRPRPRPYVMPRP,shrunken log2 fold change,-0.194
RRIRPRPPRLPRPRPRPPFDPRP,shrunken log2 fold change,0.228
RRIRGRPPRLPRPRPRPDNEPRP,shrunken log2 fold change,1.84
RRIRQRPPRLPRPRPRPENGPRP,shrunken log2 fold change,-0.0161
RRIRHRPPRLPRPRPRPAEEPRP,shrunken log2 fold change,0.175
RRIRRRPPRLPRPRPRPPDWPRP,shrunken log2 fold change,0.618
RRIRVRPPRLPRPRPRPSFWPRP,shrunken log2 fold change,-0.0205
RRIRERPPRLPRPRPRPLTCPRP,shrunken log2 fold change,-0.149
